Data published in the DeepSol protein solubility set.

assay: soluble on expression in E. coli; label from the status in PepcDB or PDB records

| Sequence | soluble on expression in E. coli |
| --- | --- |
| MSRSRKPDWLKMRPPSGERFTDIKQTLRDRNLNTVCEEANCPNLGECWSGRDGPGTATFMLMGDRCSRGCNFCDVETGGMDPLDPDEPQQVADAVAEIGLDYVVLTSVDRDDLPDQGASHFAETIRAIKERDPSILVECLIPDFQGEPDLVRKIIDADPDVIAHNIETVDRLQWPVRDRRAGYEQSLSVLRQVNRESDCYSKTSLMLGVGEYAHEVYQTLSDLRQAGVDVVTFGQYLQPSRSHLEVSEYVHPDAFDTWQQVAEAEFDFLYCASGPMVRSSYRAGELFVESVLREGRSADEARAEVRAND | not soluble |
| MSSAKHFTEVLIGGKVYTLSGFEGEEYLQKVSSYLNHKITECANSEGYRKQSADTRNVLLALNIADDYFKAKKQGDSLESDIELKDKEMYDLKHELISVQIKLENAEKELAKMKEENNDLQMQIVKLETEMKNRRK | not soluble |
| MSSANIPATQSALIFEKYGGPLEVRQVSVPQPQENELLVKIEYSGICHSDLHTWEGDFEYASICPLIGGHEGAGTVVTIGSKVKGWNIGDRAGIKLINANCLNCEYCKTGHEPLCDHIQNYGIDRHGTFQEYLTIRDIDAIKVSNDTNLAAAAPVLCGGVTAYKSLKATNVKPGQIVVLTGAGGGLGSFGIQYAKAMGMRVVAVDHISKEDHCRNLGAEWFVDAFDTPDIVAHIRKLTNGGAHGVVSFAAAKKPMEYALEYVRKRGTVVFVGLPKDGTIPLDTLSLICNEITVKGSIVGSRMDVDEAIDFITRGIVHVPIELVKLEDVPSVYQRMKDGKVTSRVVVDFSMR | not soluble |
| MSSFGHRAFFSCCLLLEGETLHSIKLRKEATYQPQSGWPVRWPIRYPRALPLASHVHPYHMIVKLPHPRTQPRLFLWLSLHWTGIPFLGKPGIGRNRVKSKQFSHFQQSKIKTTMRKKTTNRKQKAERCQYRLVTA | not soluble |
| MSSGKRRNPLGLSLPPTVNEQSESGEATAEEATATVPLEEQLKKLGLTEPQTQRLSEFLQVKEGIKELSEDMLQTEGELGHGNGGVVNKCVHRKTGVIMARKLVHLEIKPSVRQQIVKELAVLHKCNSPFIVGFYGAFVDNNDISICMEYMDGLSLDIVLKKVGRLPEKFVGRISVAVVRGLTYLKDEIKILHRDVKPSNMLVNSNGEIKLCDFGVSGMLIDSMANSFVGTRSYMAPERLTGSHYTISSDIWSFGLSLVELLIGRYPVPAPSQAEYATMFNVAENEIELADSLEEPNYHPPSNPASMAIFEMLDYIVNGPPPTLPKRFFTDEVIGFVSKCLRKLPSERATLKSLTADVFFTQYADHDDQGEFAVFVKGTINLPKLNP | not soluble |
| MSSGSRPSSGGGGGGGGASGGAGGGAPGGGGGGIRGFFSKLRKPSDQPNGNQVQVGTRTFEAHELQKLIPQLEEAISRKDAQLRQQQTIVEGHIKRISELEGEVTTLQRECDKLRSVLEQKAQSAASPGGQPPSPSPRTDQLGNDLQQKAVLPADGVQRAKKIAVSAEPTNFENKPATLQHYNKTVGAKQMIRDAVQKNDFLKQLAKEQIIELVNCMYEMRARAGQWVIQEGEPGDRLFVVAEGELQVSREGALLGKMRAGTVMGELAILYNCTRTASVQALTDVQLWVLDRSVFQMITQRLGMERHSQLMNFLTKVSIFQNLSEDRISKMADVMDQDYYDGGHYIIRQGEKGDAFFVINSGQVKVTQQIEGETEPREIRVLNQGDFFGERALLGEEVRTANIIAQAPGVEVLTLDRESFGKLIGDLESLKKDYGDKERLAQVVREPPSPVKIVDDFREEFAQVTLKNVKRLATLGVGGFGRVELVCVNGDKAKTFALKALKKKHIVDTRQQEHIFAERNIMMETSTDWIVKLYKTFRDQKFVYMLLEVCLGGELWTTLRDRGHFDDYTARFYVACVLEGLEYLHRKNIVYRDLKPENCLLANTGYLKLVDFGFAKKLASGRKTWTFCGTPEYVSPEIILNKGHDQAADYWALGIYICELMLGRPPFQASDPMKTYTLILKGVDALEIPNRRIGKTATALVKKLCRDNPGERLGSGSGGVNDIRKHRWFMGFDWEGLRSRTLKPPILPKVSNPADVTNFDNYPPDNDVPPDEFSGWDEGF | not soluble |
| MSSHTATKYDVFLSFRGHDTRHNFISFLYKELVRRSIRTFKDDKELENGQRFSPELKSPIEVSRFAVVVVSENYAASSWCLDELVTIMDFEKKGSITVMPIFYGVEPNHVRWQTGVLAEQFKKHASREDPEKVLKWRQALTNFAQLSGDCSGDDDSKLVDKIANEISNKKTIYATI | soluble |
| MSSIDPATFAAQFAQIEIQPFKQRYQLQTNTYQSQLSALGKVESAMREFRTALNEMNSSTNSIIKNSTSISQEGYFTANADAKALSGSYQIFVEQVATSHQ | not soluble |
| MSSKANHAKTVICGIINVTPDSFSDGGQFFALEQALQQARKLIAEGASMLDIGGESTRPGSSYVEIEEEIQRVVPVIKAIRKESDVLISIDTWKSQVAEAALAAGADLVNDITGLMGDEKMPHVVAEARAQVVIMFNPVMARPQHPSSLIFPHFGFGQAFTEEELADFETLPIEELMEAFFERALARAAEAGIAPENILLDPGIGFGLTKKENLLLLRDLDKLHQKGYPIFLGVSRKRFVINILEENGFEVNPETELGFRNRDTASAHVTSIAARQGVEVVRVHDVASHRMAVEIASAIRLADEAENLDLKQYK | soluble |
| MSSKLVLVLNCGSSSLKFAIIDAVNGEEYLSGLAECFHLPEARIKWKMDGNKQEAALGAGAAHSEALNFIVNTILAQKPELSAQLTAIGHRIVHGGEKYTSSVVIDESVIQGIKDAASFAPLHNPAHLIGIEEALKSFPQLKDKNVAVFDTAFHQTMPEESYLYALPYNLYKEHGIRRYGAHGTSHFYVTQEAAKMLNKPVEELNIITCHLGNGGSVSAIRNGKCVDTSMGLTPLEGLVMGTRSGDIDPAIIFHLHDTLGMSVDAINKLLTKESGLLGLTEVTSDCRYVEDNYATKEDAKRAMDVYCHRLAKYIGAYTALMDGRLDAVVFTGGIGENAAMVRELSLGKLGVLGFEVDHERNLAARFGKSGFINKEGTRPAVVIPTNEELVIAQDASRLTA | soluble |
| MSSKPLLTLQELAAQNILRNEALAISALQYLPELFLPQLLKQAYDGNHLKVLRAIVSSWPFPRLPLGALKKRTPYLETQLQVVLEEVDKLLIQEVHPREYKLEVLDLRSVGQNYLNVWPGAMDDWLPKTTQTDPCCSKTVMTQPLKVLVDLQLNNRGQSRLFSYLVQWSDRRKGLLQLYCNKLQIWSPSQQNYRKLSQKVNLDYVETLGLHSSCSPSFLLNFAPYLRQMRNLRKLALSNIREEHIISPEKRRCIITRFTLQILKLESLQKLHLDAVCFLEGHLDQLLGSVKTSLDELAVTHCNLSVSEWSHFSEFPCVSQLQQLNLENVRLTGLSPEPLQVLLVKAGPTLVALDLEDCHLEDGQLYAILPALSKCFKLTKFSFYGNQISMLAMKDLLHHTASLIHLRLELYPVPQDSYDYHGTPLMQRMQQHCDELMNLLKTFRNPGRVFFGTDRCDQCCNRYIYNKTIMCNCRRSY | not soluble |
| MSSKVSPLAPTDVPAMPMIAGVRLATAAAGIRYKGRTDVLLVEMEKGTTVAGVFTTSKCASAPVEWCRDKLKGGSARALVVNSGNANAFTGKSGKQAATLTAQLAAKAIGCKPAEVFLASTGVIGEPLDATKFDGVLDALALDAGPDGWMDAAKAIMTTDTFPKVATATVKLGKAKVTINGMAKGAGMIAPDMATMLSFIFTDAPLSASCLQALLKAGVTDTFNAVTIDGDTSTSDTLLAFATGAAAENGAPKISRASDPRLKAFVKAFNAVLADLAEQVARDGEGARKLVEIIVEGAKTKVSARKIALSIANSPLVKTAIAGEDANWGRVVMAVGKAGEPADRDKLSISFNGIRVAKAGARDPSYNEKEVSAEMKKPVIQIKVALGLGKGRDRVLTCDLTKEYVAINGDYRSLEHHHHHH | not soluble |
| MSSNAQVRPPLPPFTRESAIEKIRLAEDGWNSRDPERVSLAYTLDTQWRNRAEFAHNREEAKAFLTRKWAKELDYRLIKELWAFTDNRIAVRYAYEWHDDSGNWFRSYGNENWEFDEQGLMARRFACINDMPIKAQERKFHWPLGRRPDDHPGLSELGLLEHHHHHH | soluble |
| MSSNPLRFFVLTIFPHIISCYSEYGIVKQAIKKGKVEVYPIDLREFAPKGQVDDVPYGGLPGMVLKPEPIYEAYDYVVENYGKPFVLITEPWGEKLNQKLVNELSKKERIMIICGRYEGVDERVKKIVDMEISLGDFILSGGEIVALAVIDAVSRVLPGVLSEPQSIQEDSFQNRWLGYPVYTRPREYRGMKVPEELLSGHHKLIELWKLWHRIENTVKKRPDLIPKDLTELEKDILNSILSGKSFKEWLKEHKHLL | soluble |
| MSSNPSSVEKKLLHYTGKAIADFNMIQRGDRVMVCLSGGKDSFTLLTILNQLRIKSGNKFEIFAFTLDQAQPGWNDACLRQWLAEKSIPHEILTRDTYSIVKEKIPEGKTYCSLCSRLRRGIIYRYAEENGFNKIALGHHRDDLVRTLMMSILYNGDIRSMPPKLLSDNKKHIVIRPLCYVQEKDIITFASEQAFPIIPCNLCGSQENLMRKKVASLIDQLAIENPKVPSNMLHALQSLKPSQLMDQNFWNFKNLEDGLETTQSIQCEEVFNAQEFELEDEKI | not soluble |
| MSSNYATPLDDEVFPLSFANYQFTEHVSLGEHYSLNTSEDAKYNNLNGPFVVPRDTGKFDLNTSSASDETVFSLDNPQENNYKHQAMNNVQDCRMAVAAKTTQSCDKLTDLYANAAQQNYRLWLSSF | not soluble |
| MSSNYIYRTAEKSDFDRILKFLAEHFYHEEPSIRASKIALEEWLPIFGEMTTSSLKLPISTVVTTEDGENIVAVLLNSMWSREEDEERMKHGNGKGDHDTSGYSEALQRFMTIVQKCHDEFWNLAPSDVNLVVYREISSVGKPWQRQGIATKMLSRNMSAARLHNVDGIVSATSSFANQTLLAKNGFQCLKEFPYSGIVSSNGDKLVETDDGSHGMRINFKRIEKSGNGPCEMEPPKSATFQNVATSVSS | soluble |
| MSSPRHVFYISDRTGLTAENIGEALLNQFGNLSFKRHTHPFVDTPEKARAVVEKVNRSRQENGQRPIAFVSVVDDEIRRIIKGADAFQINFFETFLGLLEKELNTEATASGQGHHSIGNTKRYDARMEAVNFSLNHDDGVSDKNLQEADVILMGVSRSGKTPTCLYLALQYGIRAANYPLIPDDLESADLPRMVKPYRDKLFGLTIQPERLQAIRQERRPNSTYAKIDTCRSEVADAQSMFRRHGIPFANTTDKSVEELAVHILQACKLKRRF | not soluble |
| MSSQNDYQSNGRYDNIYSQIDSEAKMSFSVDVLANIAIELQRGIGHQDRFQRLITTLRQVLECDASALLRYDSRQFIPLAIDGLAKDVLGRRFALEGHPRLEAIARAGDVVRFPADSELPDPYDGLIPGQESLKVHACVGLPLFAGQNLIGALTLDGMQPDQFDVFSDEELRLIAALAAGALSNALLIEQLESQNMLPGDATPFEAVKQTQMIGLSPGMTQLKKEIEIVAASDLNVLISGETGTGKELVAKAIHEASPRAVNPLVYLNCAALPESVAESELFGHVKGAFTGAISNRSGKFEMADNGTLFLDEIGELSLALQAKLLRVLQYGDIQRVGDDRCLRVDVRVLAATNRDLREEVLAGRFRADLFHRLSVFPLSVPPLRERGDDVILLAGYFCEQCRLRQGLSRVVLSAGARNLLQHYSFPGNVRELEHAIHRAVVLARATRSGDEVILEAQHFAFPEVTLPTPEVAAVPVVKQNLREATEAFQRETIRQALAQNHHNWAACARMLETDVANLHRLAKRLGLKD | not soluble |
| MSSRIEQIIEEIEEYIDKDCKFQPLSSTKIIVNKEHLDELLRELRMKTPDEIKRYQKIISNRDAILADAKAKADAMIEEAQVQTTELVSEHEIMQQAYAQANEIVTQATAQAQEIIDNATMDANEIRMGAIQYTDDLLANAESIIGHTLDSYTTKYDGLINSLQECYDVVRTNRAELESPTPEEGQEFSGEA | not soluble |
